Patent US20230250157A1

Experiments:
Assay in all cases: ELISA
Rs4081 RBD = biological target: Rs4081 RBD
SHC014 RBD = biological target: SHC014 RBD
RmYN02 RBD = biological target: RmYN02 RBD
BM4831 RBD = biological target: BM4831 RBD
Yun11 RBD = biological target: Yun11 RBD
BtKY72 RBD = biological target: BtKY72 RBD
Khosta2 RBD = biological target: Khosta2 RBD
RsSTT200 RBD = biological target: RsSTT200 RBD
LyRa3 RBD = biological target: LyRa3 RBD
Rf1 RBD = biological target: Rf1 RBD
Pang17 RBD = biological target: Pang17 RBD
RaTG13 RBD = biological target: RaTG13 RBD

Measured: EC50

C102 IgG
> 10 µg/mL: Rs4081 RBD | SHC014 RBD | RmYN02 RBD | BM4831 RBD | Yun11 RBD | BtKY72 RBD | Khosta2 RBD | RsSTT200 RBD | LyRa3 RBD | Rf1 RBD | Pang17 RBD

C144 IgG
> 10 µg/mL: Rs4081 RBD | SHC014 RBD | RmYN02 RBD | BM4831 RBD | Yun11 RBD | RaTG13 RBD | BtKY72 RBD | Khosta2 RBD | LyRa3 RBD | Rf1 RBD | Pang17 RBD

S309 IgG
> 10 µg/mL: Rs4081 RBD | RmYN02 RBD | Yun11 RBD | BtKY72 RBD | Rf1 RBD
